Assay results taken from PMC3649978.

Molecular target: EB1 (competitive binding assay, source not named) (UniProt Q61166)
Assay: competitive binding assay; data not shown; p104_(554–593) as competitor of EB1 binding to recombinant p104

UniProt Q61166, sequence (Q61166 whole entry): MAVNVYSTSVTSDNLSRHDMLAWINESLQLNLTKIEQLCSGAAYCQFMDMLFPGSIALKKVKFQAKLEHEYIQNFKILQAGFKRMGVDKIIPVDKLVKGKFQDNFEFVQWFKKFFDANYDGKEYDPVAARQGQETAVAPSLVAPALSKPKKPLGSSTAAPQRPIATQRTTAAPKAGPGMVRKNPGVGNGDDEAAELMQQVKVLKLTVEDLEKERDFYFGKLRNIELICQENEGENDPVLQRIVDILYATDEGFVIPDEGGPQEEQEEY

“p104_(554–593) (soluble 40 aa fragment of p104; recombinant form GFP-p104_(554–593)) (domain or fragment)” showed a molar excess for 50% inhibition (fold molar excess) of 3.
